Source: paper PMC9483116, “Deubiquitination of BES1 by UBP12/UBP13 promotes brassinosteroid signaling and plant growth” (Plant Communications, 2022)

T1: GST-UBP13 (full-length) (Arabidopsis thaliana, UniProt Q84WU2 1-1115)
T1 construct: UBP13 (ubiquitin-specific protease 13), Arabidopsis thaliana, At3g11910; full length
T1 sequence (looked up): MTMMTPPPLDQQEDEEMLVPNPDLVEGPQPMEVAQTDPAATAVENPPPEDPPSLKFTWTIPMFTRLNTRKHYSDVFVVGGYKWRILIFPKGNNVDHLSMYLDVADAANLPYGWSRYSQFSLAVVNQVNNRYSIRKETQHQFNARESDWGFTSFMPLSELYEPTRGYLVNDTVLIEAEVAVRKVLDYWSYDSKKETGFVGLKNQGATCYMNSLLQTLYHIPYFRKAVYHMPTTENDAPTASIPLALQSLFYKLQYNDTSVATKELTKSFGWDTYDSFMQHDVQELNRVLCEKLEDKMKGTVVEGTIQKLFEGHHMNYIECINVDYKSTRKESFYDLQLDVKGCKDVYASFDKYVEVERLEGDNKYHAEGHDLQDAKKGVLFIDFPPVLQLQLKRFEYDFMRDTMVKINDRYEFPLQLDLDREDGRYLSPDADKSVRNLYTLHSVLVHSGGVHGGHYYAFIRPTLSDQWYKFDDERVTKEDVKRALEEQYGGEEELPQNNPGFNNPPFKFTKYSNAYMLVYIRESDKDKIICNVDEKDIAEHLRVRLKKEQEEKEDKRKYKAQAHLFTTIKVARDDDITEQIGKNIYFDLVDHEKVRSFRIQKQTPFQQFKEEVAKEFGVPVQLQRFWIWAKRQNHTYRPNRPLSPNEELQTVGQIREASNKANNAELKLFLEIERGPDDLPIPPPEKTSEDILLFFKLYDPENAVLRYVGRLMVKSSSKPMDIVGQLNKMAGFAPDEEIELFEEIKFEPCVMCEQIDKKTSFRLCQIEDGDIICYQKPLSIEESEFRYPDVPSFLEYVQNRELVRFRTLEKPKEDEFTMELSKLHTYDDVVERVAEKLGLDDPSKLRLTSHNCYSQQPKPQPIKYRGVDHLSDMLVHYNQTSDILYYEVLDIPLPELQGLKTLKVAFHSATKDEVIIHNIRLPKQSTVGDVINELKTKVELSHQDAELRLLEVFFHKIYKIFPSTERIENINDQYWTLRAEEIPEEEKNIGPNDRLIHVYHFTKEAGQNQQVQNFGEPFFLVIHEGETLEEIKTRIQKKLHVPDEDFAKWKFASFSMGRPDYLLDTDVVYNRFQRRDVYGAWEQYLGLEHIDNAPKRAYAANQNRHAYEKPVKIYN

T2: GST-UBP12 (full-length) (Arabidopsis thaliana, UniProt Q9FPT1 1-1116)
T2 construct: UBP12 (ubiquitin-specific protease 12), Arabidopsis thaliana, At5g06600; full length (1-1116 by the limits printed for its N and C derivatives); not shown: GST, N-terminal, kept
T2 sequence (looked up): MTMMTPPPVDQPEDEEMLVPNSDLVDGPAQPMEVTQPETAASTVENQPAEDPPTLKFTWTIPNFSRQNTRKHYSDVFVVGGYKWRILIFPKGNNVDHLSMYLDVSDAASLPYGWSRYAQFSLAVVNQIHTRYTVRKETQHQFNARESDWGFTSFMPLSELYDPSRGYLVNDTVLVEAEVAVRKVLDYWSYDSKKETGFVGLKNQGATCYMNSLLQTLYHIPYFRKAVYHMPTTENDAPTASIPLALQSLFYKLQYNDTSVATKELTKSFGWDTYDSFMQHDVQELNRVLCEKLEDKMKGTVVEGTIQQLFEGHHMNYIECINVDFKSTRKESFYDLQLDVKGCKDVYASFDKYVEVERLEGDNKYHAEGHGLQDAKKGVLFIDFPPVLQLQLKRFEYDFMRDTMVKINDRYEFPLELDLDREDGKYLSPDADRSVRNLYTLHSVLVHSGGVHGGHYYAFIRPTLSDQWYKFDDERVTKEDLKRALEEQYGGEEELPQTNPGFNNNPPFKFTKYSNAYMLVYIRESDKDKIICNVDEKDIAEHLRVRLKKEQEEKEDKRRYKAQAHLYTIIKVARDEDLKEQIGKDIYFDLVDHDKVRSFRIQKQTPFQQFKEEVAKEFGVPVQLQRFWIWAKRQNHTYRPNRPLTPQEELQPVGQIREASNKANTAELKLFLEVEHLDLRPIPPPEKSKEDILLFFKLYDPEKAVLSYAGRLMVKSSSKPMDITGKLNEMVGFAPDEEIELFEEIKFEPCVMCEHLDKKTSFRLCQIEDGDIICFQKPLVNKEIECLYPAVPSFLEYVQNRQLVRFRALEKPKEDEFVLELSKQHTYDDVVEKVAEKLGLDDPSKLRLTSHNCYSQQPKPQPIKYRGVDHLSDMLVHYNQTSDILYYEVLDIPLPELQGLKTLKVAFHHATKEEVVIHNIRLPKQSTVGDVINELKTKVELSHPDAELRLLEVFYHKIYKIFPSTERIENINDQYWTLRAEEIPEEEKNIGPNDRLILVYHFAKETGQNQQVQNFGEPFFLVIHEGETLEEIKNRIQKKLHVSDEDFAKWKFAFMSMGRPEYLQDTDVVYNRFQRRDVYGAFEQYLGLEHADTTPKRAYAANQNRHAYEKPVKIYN

T3: GST-UBP12-N (N-terminal region of UBP12, amino acids 1–541) (Arabidopsis thaliana, UniProt Q9FPT1 1-541)
T3 construct: UBP12, Arabidopsis thaliana, At5g06600; N-terminal region, amino acids 1-541, with the MATH domain and the cysteine/histidine-containing catalytic domain
T3 sequence (looked up): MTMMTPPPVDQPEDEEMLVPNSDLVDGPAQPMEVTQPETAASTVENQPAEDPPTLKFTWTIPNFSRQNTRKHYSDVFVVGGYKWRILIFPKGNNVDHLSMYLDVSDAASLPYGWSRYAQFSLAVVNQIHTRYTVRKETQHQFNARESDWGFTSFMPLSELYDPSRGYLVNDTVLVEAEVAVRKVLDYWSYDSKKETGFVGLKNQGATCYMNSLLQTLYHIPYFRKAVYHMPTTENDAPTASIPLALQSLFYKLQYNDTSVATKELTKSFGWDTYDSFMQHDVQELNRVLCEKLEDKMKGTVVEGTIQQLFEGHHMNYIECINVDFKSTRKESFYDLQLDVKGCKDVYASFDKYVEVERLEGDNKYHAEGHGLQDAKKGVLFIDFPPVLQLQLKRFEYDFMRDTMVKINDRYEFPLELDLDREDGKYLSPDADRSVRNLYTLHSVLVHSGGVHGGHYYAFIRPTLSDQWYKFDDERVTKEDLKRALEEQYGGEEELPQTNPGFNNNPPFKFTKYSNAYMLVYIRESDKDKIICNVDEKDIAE


Columns and labels:
Assay in all cases: pull-down; in vitro; GST-tagged proteins bound to glutathione resin as bait, MBP-tagged proteins incubated with them; about 2 ug of each protein; immunoblot with anti-myc or anti-MBP
Conditions in all cases: both partners purified
GST-UBP13 (full-length) = target: T1, GST-UBP13 (full-length)
GST-UBP12 (full-length) = target: T2, GST-UBP12 (full-length)
[1] = target: T3, GST-UBP12-N (N-terminal region of …)

Row | Binder | binding result (GST-UBP13 (full-length)) | binding result (GST-UBP12 (full-length)) | binding result [1]
1 | MBP-BZR1-myc (BRASSINAZOLE RESISTANT1) (natural protein, Arabidopsis thaliana, UniProt Q8S307 1-336, looked up, BZR1 (BRASSINAZOLE RESISTANT1), Arabidopsis thaliana, At1g75080; source: E. coli BL21 (DE3) pLysS, purified (amylose resin); not shown: MBP, N-terminal, kept; 6x myc, C-terminal, kept) MTSDGATSTSAAAAAAAAAAARRKPSWRERENNRRRERRRRAVAAKIYTGLRAQGDYNLPKHCDNNEVLKALCVEAGWVVEEDGTTYRKGCKPLPGEIAGTSSRVTPYSSQNQSPLSSAFQSPIPSYQVSPSSSSFPSPSRGEPNNNMSSTFFPFLRNGGIPSSLPSLRISNSCPVTPPVSSPTSKNPKPLPNWESIAKQSMAIAKQSMASFNYPFYAVSAPASPTHRHQFHTPATIPECDESDSSTVDSGHWISFQKFAQQQPFSASMVPTSPTFNLVKPAPQQMSPNTAAFQEIGQSSEFKFENSQVKPWEGERIHDVGMEDLELTLGNGKARG | binds | binds | –
2 | MBP-BES1-myc (BRI1-EMS-SUPPRESSOR 1) (natural protein, Arabidopsis thaliana, UniProt Q9LN63 1-335, looked up, BES1 (BRI1-EMS-SUPPRESSOR 1), Arabidopsis thaliana, At1g19350; source: E. coli BL21 (DE3) pLysS, purified (amylose resin); not shown: MBP, N-terminal, kept; 6x myc, C-terminal, kept) MTSDGATSTSAAAAAAAMATRRKPSWRERENNRRRERRRRAVAAKIYTGLRAQGNYNLPKHCDNNEVLKALCSEAGWVVEEDGTTYRKGHKPLPGDMAGSSSRATPYSSHNQSPLSSTFDSPILSYQVSPSSSSFPSPSRVGDPHNISTIFPFLRNGGIPSSLPPLRISNSAPVTPPVSSPTSRNPKPLPTWESFTKQSMSMAAKQSMTSLNYPFYAVSAPASPTHHRQFHAPATIPECDESDSSTVDSGHWISFQKFAQQQPFSASMVPTSPTFNLVKPAPQQLSPNTAAIQEIGQSSEFKFENSQVKPWEGERIHDVAMEDLELTLGNGKAHS | binds | binds | binds
